Assay results as given in paper PMC3094209.

Experiments:
[1] = target: human angiotensin receptor type 2 expressed in Sf9 insect cells (human) (UniProt P50052); assay: radioligand binding; membranes from small-scale cultures; radioactive-labelled specific ligand; specific binding in pmol/mg-membrane, mean ± S.D., n = 3
[2] = target: human angiotensin receptor type 2 expressed in P. pastoris (human) (UniProt P50052); assay: as above

specific binding activity (pmol/mg-membrane) [1]: 1.66 | specific binding activity (pmol/mg-membrane) [2]: 3.69
Substance: Angiotensin (printed as "Angiotenin"), radioactive-labelled agonist (peptide)
